Measurements published in article PMC7439511.
pKd: −log10 of the molar value.

Target: GST-PHD^RACK7 (human)
Assay: MST

pKd: 5.22
Substance: H3.3G34R peptide (amino acids 22 to 44) (from UniProt P84243 23-45)
